Ends that are not written are not given here. Peptide text beside a SMILES is read from it. * marks the point of attachment. X1 = N[C@H]1CS[As]2SC[C@H](NC1=O)C(=O)N1CCC[C@H]1C(=O)NCC(=O)N[C@H]1CS[As](SC[C@@H](C(=O)*)NC1=O)c1c(O)ccc3c1Oc1c(ccc(O)c12)C31OC(=O)c2ccccc21

For assay [1], the target named is GST–KLHL3^290–587 R528H (Homo sapiens, UniProt Q9UH77, R528H). The format is binding.
Assay [2] concerns the target T1, GST–KLHL3^290–587 R528H (human, UniProt Q9UH77-1 290-587, R528H).
T1 construct: KLHL3, human, NM_017415.2, Kelch domain, residues 290-587, with the Gordon's syndrome mutation R528H; Mutation found in patients with Gordon's syndrome; also called KLHL3 R528H; source: E. coli BL21, purified (glutathione–Sepharose); not shown: GST, N-terminal, kept
T1 sequence (looked up): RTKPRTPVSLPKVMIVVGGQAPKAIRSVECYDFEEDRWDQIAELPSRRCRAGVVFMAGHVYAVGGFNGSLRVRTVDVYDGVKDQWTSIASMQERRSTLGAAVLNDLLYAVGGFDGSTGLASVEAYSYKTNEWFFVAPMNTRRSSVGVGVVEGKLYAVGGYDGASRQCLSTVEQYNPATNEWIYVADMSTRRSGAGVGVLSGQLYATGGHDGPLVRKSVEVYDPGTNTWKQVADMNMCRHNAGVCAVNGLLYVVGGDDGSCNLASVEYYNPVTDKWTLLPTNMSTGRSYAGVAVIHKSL
As to the kind of experiment: fluorescence polarisation; Kelch protein titrated against 10 nM Lumio-Green-labelled peptide; 25°C; 50 mM Tris/HCl pH 7.5, 150 mM NaCl, 2 mM DTT; one-site specific binding with Hill slope; duplicates, at least 12 points per curve. The following applies: both partners purified. For orientation: In fluorescence polarisation assays a small probe gives low polarisation when free and higher when bound to something large.

For assay [3], the target named is T2, KLHL3 full-length protein (residues 1–587) (human, UniProt Q9UH77-1 1-587).
T2 construct: Kelch-like protein 3 (KLHL3), human, NM_017415.2, residues 1-587; also called Kelch-like protein 3; source: Sf21 cells, expressed and purified as a DAC-(TEV protease)KLHL3 fusion protein
T2 sequence (looked up): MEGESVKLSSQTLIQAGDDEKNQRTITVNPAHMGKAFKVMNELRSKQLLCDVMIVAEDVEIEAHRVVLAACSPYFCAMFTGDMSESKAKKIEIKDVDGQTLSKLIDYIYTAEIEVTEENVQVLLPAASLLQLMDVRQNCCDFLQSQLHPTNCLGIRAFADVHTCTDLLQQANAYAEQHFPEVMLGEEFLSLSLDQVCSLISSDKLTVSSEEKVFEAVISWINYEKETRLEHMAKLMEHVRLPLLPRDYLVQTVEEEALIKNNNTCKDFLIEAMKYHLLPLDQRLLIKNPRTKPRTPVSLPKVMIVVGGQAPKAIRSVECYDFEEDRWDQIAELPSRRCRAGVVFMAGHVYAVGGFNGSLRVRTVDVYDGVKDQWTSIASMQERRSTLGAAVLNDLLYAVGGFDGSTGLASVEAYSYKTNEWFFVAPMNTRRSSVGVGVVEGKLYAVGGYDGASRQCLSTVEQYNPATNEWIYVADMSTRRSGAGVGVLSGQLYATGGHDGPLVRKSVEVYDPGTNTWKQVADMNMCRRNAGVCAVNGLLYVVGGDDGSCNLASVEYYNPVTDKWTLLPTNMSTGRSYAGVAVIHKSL
Described as above. The following applies: both partners purified.

Assay [4] concerns the target T3, GST–KLHL3^290–587 N529K (human, UniProt Q9UH77-1 290-587, N529K).
T3 construct: KLHL3, human, NM_017415.2, Kelch domain, residues 290-587, with the Gordon's syndrome mutation N529K; Mutation found in patients with Gordon's syndrome; also called KLHL3 N529K; source: E. coli BL21, purified (glutathione–Sepharose); not shown: GST, N-terminal, kept
T3 sequence (looked up): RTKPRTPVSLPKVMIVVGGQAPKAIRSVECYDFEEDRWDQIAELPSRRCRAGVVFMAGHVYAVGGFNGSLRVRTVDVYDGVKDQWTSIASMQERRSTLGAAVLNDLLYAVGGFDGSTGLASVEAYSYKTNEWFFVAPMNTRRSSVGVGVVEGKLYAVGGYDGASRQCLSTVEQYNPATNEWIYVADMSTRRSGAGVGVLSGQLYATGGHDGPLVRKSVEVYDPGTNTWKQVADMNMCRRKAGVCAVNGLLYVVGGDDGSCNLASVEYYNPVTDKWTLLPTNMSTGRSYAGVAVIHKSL
Described as above. The conditions noted are these: both partners purified.

For the molecule `CC(C)[C@H](NC(=O)[C@H](CO)NC(=O)[C@@H]1CCCN1C(=O)[C@@H]1CCCN1C(=O)CNC(=O)CNC(=O)CNC(=O)CNC(=O)CNC(=O)[C@@H]1CS[As]2SC[C@H](NC(=O)CNC(=O)[C@@H]3CCCN3C(=O)[C@@H]3CS[As](SC[C@H](N)C(=O)N3)c3c(O)ccc4c3Oc3c(ccc(O)c32)C42OC(=O)c3ccccc32)C(=O)N1)C(=O)N[C@@H](Cc1ccccc1)C(=O)N1CCC[C@H]1C(=O)N1CCC[C@H]1C(=O)N[C@@H](CCC(=O)O)C(=O)N1CCC[C@H]1C(=O)N[C@@H](CCC(=O)O)C(=O)N[C@@H](CCC(=O)O)C(=O)N1CCC[C@H]1C(=O)N[C@@H](CCC(=O)O)C(=O)N[C@@H](C)C(=O)N[C@@H](CC(=O)O)C(=O)N[C@@H](CCC(N)=O)C(=O)N[C@@H](Cc1cnc[nH]1)C(=O)N[C@@H](CCC(N)=O)C(=O)O` (stereo partly shown) [WNK4 WT 549–567] (X1-GGGGGPPSVFPPEPEEPEADQHQ-OH), the “reduction of binding relative to wild-type KLHL3” value in assay [1] was “approximately 10 fold”.

B1: 19-residue WNK4 degron peptide (WNK4 WT 549–567) (peptide)
peptide: GPPSVFPPEPEEPEADQHQ
modifications: not fully specified (N-terminus); also: Lumio Green fluorophore on N-terminal linker CCPGCCGGGG
notes: WNK4 acidic degron, residues 549-567; also called WNK4 19-residue peptide; source: synthetic peptide (GL Biochem)
As to B1, the Kd (in general, the equilibrium constant for the complex coming apart) turned out to be 1930 nM in assay [2], 620 nM in assay [3] and 6600 nM in assay [4].
